Assay results as given in publication PMC2828450, “Crystal structure of the signaling helix coiled-coil domain of the β1 subunit of the soluble guanylyl cyclase” (BMC Structural Biology, 2010).
Several values for one entry are separate records, joined by “and”; a condition that tells them apart may be missing. Identical values can stand only once.

Columns and labels:
[1] = biological target: sGC beta1 H-NOXA domain H-NOXA (UniProt Q02153); conditions: cited from earlier work
[2] = biological target: sGC beta1 catalytic domain catalytic domain (UniProt Q02153); conditions: cited from earlier work
[3] = biological target: the molecule itself; assay: SEC; analytic gel filtration on a Superdex 75 column calibrated with Mw standards, before crystallization; major 38.5 kD and minor 19.5 kD species

For “sGC beta1 H-NOXA domain H-NOXA (from UniProt Q02153)”, the Kd [1] is listed as under 60 µM.

For “sGC beta1 catalytic domain catalytic domain (from UniProt Q02153)”, the Kd [2] is listed as 6 µM.

B1: Rattus norvegicus soluble guanylyl cyclase β1 subunit coiled-coil domain, residues 348-409, I371M (domain or fragment)
chain: GSHMATRDLVLLGEQFREEYKLTQELEMLTDRLQLTLRALEDEKKKTDTLLYSVLPPSVANELRHK
modifications: not fully specified (residues 4, 28); printed as gshmATRDLVLLGEQFREEYKLTQELE**M**LTDRLQLTLRALEDEKKKTDTLLYSVLPPSVANELRHK; also: expressed with selenomethionine (Met replaced by SeMet)
notes: N-terminal cloning artefact left after thrombin cleavage of the pET15b tag; The printed calculated mass of 7712.86 Da fits GSHM + 348-409 with I371M (my calculation; wild type would be about 7694.8 Da), and only the I371M construct's purification is described; One molecule is therefore used for all three experiments; also called sGCβ1 CC; rsGCβ1 CC domain; source: E. coli BL21 (DE3) pLysS, …
In the case of B1, the “stoichiometry N” value [3] is reported as 4 and 2.
